# Assay results from paper PMC8274477 (Frontiers in Cell and Developmental Biology, 2021).
# B1: DECR2 (natural protein, human, UniProt Q9NUI1 1-292, looked up)
# chain: MAQPPPDVEGDDCLPAYRHLFCPDLLRDKVAFITGGGSGIGFRIAEIFMRHGCHTVIASRSLPRVLTAARKLAGATGRRCLPLSMDVRAPPAVMAAVDQALKEFGRIDILINCAAGNFLCPAGALSFNAFKTVMDIDTSGTFNVSRVLYEKFFRDHGGVIVNITATLGNRGQALQVHAGSAKAAVDAMTRHLAVEWGPQNIRVNSLAPGPISGTEGLRRLGGPQASLSTKVTASPLQRLGNKTEIAHSVLYLASPLASYVTGAVLVADGGAWLTFPNGVKGLPDFASFSAKL
# notes: DECR2; protein on the human proteome microarray; source: spotted on the HuProt human proteome microarray
# B2: DNALI1 (natural protein, human, UniProt O14645 1-258, looked up)
# chain: MIPPADSLLKYDTPVLVSRNTEKRSPKARLLKVSPQQPGPSGSAPQPPKTKLPSTPCVPDPTKQAEEILNAILPPREWVEDTQLWIQQVSSTPSTRMDVVHLQEQLDLKLQQRQARETGICPVRRELYSQCFDELIREVTINCAERGLLLLRVRDEIRMTIAAYQTLYESSVAFGMRKALQAEQGKSDMERKIAELETEKRDLERQVNEQKAKCEATEKRESERRQVEEKKHNEEIQFLKRTNQQLKAQLEGIIAPKK
# notes: DNALI1; protein on the human proteome microarray; source: spotted on the HuProt human proteome microarray
# B3: GAPDH (natural protein)
# chain: not shown
# notes: GAPDH; protein on the human proteome microarray; source: spotted on the HuProt human proteome microarray
# B4: CSRP1 (natural protein, human, UniProt P21291 1-193, looked up)
# chain: MPNWGGGKKCGVCQKTVYFAEEVQCEGNSFHKSCFLCMVCKKNLDSTTVAVHGEEIYCKSCYGKKYGPKGYGYGQGAGTLSTDKGESLGIKHEEAPGHRPTTNPNASKFAQKIGGSERCPRCSQAVYAAEKVIGAGKSWHKACFRCAKCGKGLESTTLADKDGEIYCKGCYAKNFGPKGFGFGQGAGALVHSE
# notes: CSRP1; protein on the human proteome microarray; source: spotted on the HuProt human proteome microarray
# B5: FAM49B (natural protein, human, UniProt Q9NUQ9 1-324, looked up)
# chain: MGNLLKVLTCTDLEQGPNFFLDFENAQPTESEKEIYNQVNVVLKDAEGILEDLQSYRGAGHEIREAIQHPADEKLQEKAWGAVVPLVGKLKKFYEFSQRLEAALRGLLGALTSTPYSPTQHLEREQALAKQFAEILHFTLRFDELKMTNPAIQNDFSYYRRTLSRMRINNVPAEGENEVNNELANRMSLFYAEATPMLKTLSDATTKFVSENKNLPIENTTDCLSTMASVCRVMLETPEYRSRFTNEETVSFCLRVMVGVIILYDHVHPVGAFAKTSKIDMKGCIKVLKDQPPNSVEGLLNALRYTTKHLNDETTSKQIKSMLQ
# notes: FAM49B; protein on the human proteome microarray; source: spotted on the HuProt human proteome microarray
# B6: CYB5R1 (natural protein, human, UniProt Q9UHQ9 1-305, looked up)
# chain: MGIQTSPVLLASLGVGLVTLLGLAVGSYLVRRSRRPQVTLLDPNEKYLLRLLDKTTVSHNTKRFRFALPTAHHTLGLPVGKHIYLSTRIDGSLVIRPYTPVTSDEDQGYVDLVIKVYLKGVHPKFPEGGKMSQYLDSLKVGDVVEFRGPSGLLTYTGKGHFNIQPNKKSPPEPRVAKKLGMIAGGTGITPMLQLIRAILKVPEDPTQCFLLFANQTEKDIILREDLEELQARYPNRFKLWFTLDHPPKDWAYSKGFVTADMIREHLPAPGDDVLVLLCGPPPMVQLACHPNLDKLGYSQKMRFTY
# notes: CYB5R1; protein on the human proteome microarray; source: spotted on the HuProt human proteome microarray
# B7: CRYZ (natural protein, human, UniProt Q08257 1-329, looked up)
# chain: MATGQKLMRAVRVFEFGGPEVLKLRSDIAVPIPKDHQVLIKVHACGVNPVETYIRSGTYSRKPLLPYTPGSDVAGVIEAVGDNASAFKKGDRVFTSSTISGGYAEYALAADHTVYKLPEKLDFKQGAAIGIPYFTAYRALIHSACVKAGESVLVHGASGGVGLAACQIARAYGLKILGTAGTEEGQKIVLQNGAHEVFNHREVNYIDKIKKYVGEKGIDIIIEMLANVNLSKDLSLLSHGGRVIVVGSRGTIEINPRDTMAKESSIIGVTLFSSTKEEFQQYAAALQAGMEIGWLKPVIGSQYPLEKVAEAHENIIHGSGATGKMILLL
# notes: CRYZ; protein on the human proteome microarray; source: spotted on the HuProt human proteome microarray
# B8: C9orf9 (natural protein, human, UniProt Q96E40 1-222, looked up)
# chain: MNEVKESLRSIEQKYKLFQQQQLTFTAALEHCRENAHDKIRPISSIGQVQSYMEHYCNSSTDRRVLLMFLDICSELNKLCQHFEAVHSGTPVTNNLLEKCKTLVSQSNDLSSLRAKYPHDVVNHLSCDEARNHYGGVVSLIPLILDLMKEWIAHSEKLPRKVLQHVSEPQAHQESTRGAARPAQAIGTQPRATKHKCRQLTKASLKPRGCSKPPWRPPGGKL
# notes: C9orf9; protein on the human proteome microarray; source: spotted on the HuProt human proteome microarray
# B9: CCNB1IP1 (natural protein, human, UniProt Q9NPC3 1-277, looked up)
# chain: MSLCEDMLLCNYRKCRIKLSGYAWVTACSHIFCDQHGSGEFSRSPAICPACNSTLSGKLDIVRTELSPSEEYKAMVLAGLRPEIVLDISSRALAFWTYQVHQERLYQEYNFSKAEGHLKQMEKIYTQQIQSKDVELTSMKGEVTSMKKVLEEYKKKFSDISEKLMERNRQYQKLQGLYDSLRLRNITIANHEGTLEPSMIAQSGVLGFPLGNNSKFPLDNTPVRNRGDGDGDFQFRPFFAGSPTAPEPSNSFFSFVSPSRELEQQQVSSRAFKVKRI
# notes: CCNB1IP1; protein on the human proteome microarray; source: spotted on the HuProt human proteome microarray
# B10: EIF4H (natural protein)
# chain: not shown
# notes: EIF4H; protein on the human proteome microarray; source: spotted on the HuProt human proteome microarray
# B11: CDCA3 (natural protein, human, UniProt Q99618 1-268, looked up)
# chain: MGSAKSVPVTPARPPPHNKHLARVADPRSPSAGILRTPIQVESSPQPGLPAGEQLEGLKHAQDSDPRSPTLGIARTPMKTSSGDPPSPLVKQLSEVFETEDSKSNLPPEPVLPPEAPLSSELDLPLGTQLSVEEQMPPWNQTEFPSKQVFSKEEARQPTETPVASQSSDKPSRDPETPRSSGSMRNRWKPNSSKVLGRSPLTILQDDNSPGTLTLRQGKRPSPLSENVSELKEGAILGTGRLLKTGGRAWEQGQDHDKENQHFPLVES
# notes: CDCA3; protein on the human proteome microarray; source: spotted on the HuProt human proteome microarray
# B12: GCLM (natural protein, human, UniProt P48507 1-274, looked up)
# chain: MGTDSRAAKALLARARTLHLQTGNLLNWGRLRKKCPSTHSEELHDCIQKTLNEWSSQINPDLVREFPDVLECTVSHAVEKINPDEREEMKVSAKLFIVESNSSSSTRSAVDMACSVLGVAQLDSVIIASPPIEDGVNLSLEHLQPYWEELENLVQSKKIVAIGTSDLDKTQLEQLYQWAQVKPNSNQVNLASCCVMPPDLTAFAKQFDIQLLTHNDPKELLSEASFQEALQESIPDIQAHEWVPLWLLRYSVIVKSRGIIKSKGYILQAKRRGS
# notes: GCLM; protein on the human proteome microarray; source: spotted on the HuProt human proteome microarray
# B13: CSRP3 (natural protein, human, UniProt P50461 1-194, looked up)
# chain: MPNWGGGAKCGACEKTVYHAEEIQCNGRSFHKTCFHCMACRKALDSTTVAAHESEIYCKVCYGRRYGPKGIGYGQGAGCLSTDTGEHLGLQFQQSPKPARSVTTSNPSKFTAKFGESEKCPRCGKSVYAAEKVMGGGKPWHKTCFRCAICGKSLESTNVTDKDGELYCKVCYAKNFGPTGIGFGGLTQQVEKKE
# notes: CSRP3; protein on the human proteome microarray; source: spotted on the HuProt human proteome microarray
# B14: CUTA (natural protein, human, UniProt O60888 33-179, looked up)
# chain: RLLLLPRVLLTMASGSPPTQPSPASDSGSGYVPGSVSAAFVTCPNEKVAKEIARAVVEKRLAACVNLIPQITSIYEWKGKIEEDSEVLMMIKTQSSLVPALTDFVRSVHPYEVAEVIALPVEQGNFPYLQWVRQVTESVSDSITVLP
# notes: CUTA; protein on the human proteome microarray; source: spotted on the HuProt human proteome microarray
# B15: GBGT1 (natural protein, human, UniProt Q8N5D6 1-347, looked up)
# chain: MHRRRLALGLGFCLLAGTSLSVLWVYLENWLPVSYVPYYLPCPEIFNMKLHYKREKPLQPVVWSQYPQPKLLEHRPTQLLTLTPWLAPIVSEGTFNPELLQHIYQPLNLTIGVTVFAVGKYTHFIQSFLESAEEFFMRGYRVHYYIFTDNPAAVPGVPLGPHRLLSSIPIQGHSHWEETSMRRMETISQHIAKRAHREVDYLFCLDVDMVFRNPWGPETLGDLVAAIHPSYYAVPRQQFPYERRRVSTAFVADSEGDFYYGGAVFGGQVARVYEFTRGCHMAILADKANGIMAAWREESHLNRHFISNKPSKVLSPEYLWDDRKPQPPSLKLIRFSTLDKDISCLRS
# notes: GBGT1; protein on the human proteome microarray; source: spotted on the HuProt human proteome microarray
# Target: T1, OTULIN (OTU deubiquitinase with linear linkage specificity, FAM105B), His-tagged, biotin-labelled (human, UniProt Q96BN8 1-352, biotin (label; sites not stated))
# T1 construct: OTULIN (FAM105B), cDNA in pET28a; also called HIS-OTULIN; source: E. coli BL21 (DE3), purified (His-tag Purification Resin), labelled with biotin; not shown: His6, N-terminal, kept
# Experiment: peptide or protein array; HuProt human proteome microarray; 5 ug/5 ml biotin-labelled LUBAC or OTULIN in solution, 1 h at room temperature; Cy5-streptavidin, scanned at 635 nm; BSA as negative control; hits: Z-score >= 3 and I_(Mean_Ratio) >= 1.4
# Conditions: both partners purified
row,binding result,Binder
1,binds,B1
2,binds,B2
3,binds,B3
4,binds,B4
5,binds,B5
6,binds,B6
7,binds,B7
8,binds,B8
9,binds,B9
10,binds,B10
11,binds,B11
12,binds,B12
13,binds,B13
14,binds,B14
15,binds,B15
